For this assay, the target named is T1, Trp1 as expressed by B16 melanoma cells (UniProt P07147 25-537, limits assumed).
T1 construct: whole, on cells; also called Tyrosinase-related protein 1; TYRP1
In words: flow cytometry on permeabilized B16 cells, detection with anti-mouse IgG PE. The text has this:
FIG. 2 depicts Trp1 expression profile. B16, B78H1, and B78H1 engineered to express Trp1 on the surface were stained with TA99, TA99 single chain variable region fused to an Fc domain, or isotype control. The cell lines were washed and stained with anti-mouse IgG PE and further analyzed by flow cytometry. B16 was permeabilized before staining since the level of Trp1 expression is suboptimal in the surface in vitro.
An scFv that specifically binds to a mouse Trp1 polypeptide and a human Trp1 polypeptide was generated from a murine monoclonal antibody TA99 that was generated from the TA99 antibody disclosed in International Patent Publication No. WO96/40249. This scFv was cloned into an eGFP cassette. The binding specificity of this scFv to the Trp1 polypeptide was evaluated using a soluble protein comprising this scFv and a Fc domain fused to the scFv. The binding specificity of the scFv-Fc fusion protein to B16 melanoma cells (expressing Trp1), a B16 variant B78H1 (not expressing Trp1), and B78H1-Trp1 (B78H1 engineered to express TRP1 on the surface) was evaluated by flow cytometry. […]

B1: soluble protein comprising the TA99-derived scFv and a Fc domain fused to the scFv (Fc fusion, not shown: a dimerising Fc or GST)
scFv: EVQLQQSGAELVRPGALVKLSCKTSGFNIKDYFLHWVRQRPDQGLEWIGWINPDNGNTVYDPKFQGTASLTADTSSNTVYLQLSGLTSEDTAVYFCTRRDYTYEKAALDYWGQGASVIVSSGGGGSGGGGSGGGGSAFQMSQSPASLSASVGETVTITCRASGNIYNYLAWYQQKQGKSPHLLVYDAKTLADGVPSRFSGSGSGTQYSLKISSLQTEDSGNYYCQHFWSLPFTFGSGTKLEIKAAA
notes: also called scFv-Fc fusion protein; TA99 single chain variable region fused to an Fc domain
As to B1, the binding result is “binds”.

The record behind these values is US20190375855A1 (Memorial Sloan Kettering, published 2019).
